The text below walks through data of the Immune Epitope Database (IEDB).

Test [1] deals with HLA-A*02:01. The test can be described thus: IEDB peptide-MHC binding, purified MHC/competitive/radioactivity; ≥ and ≤ were set here for values at or beyond the usual limits of such assays. As to conditions: source organism: Homo sapiens.
Test [2] concerns the target HLA-A*01:01. The test is described as above.
In test [3] the target is HLA-B*57:01. In words: IEDB peptide-MHC binding, purified MHC/competitive/fluorescence; filed as Kd, often an IC50 or EC50 that approximates it; ≥ and ≤ were set here for values at or beyond the usual limits of such assays. Particulars: source organism: Orthomarburgvirus marburgense.
The target in a further test is HLA-A*02:06. Described as above.
For a further test, the target named is HLA-B*15:17. The description is as above.
Test [4] has as its target HLA-A*68:02. The test is described as above. Particulars: source organism: Orthomarburgvirus marburgense.
In a further test the target is HLA-B*15:09. Described as above. As to conditions: source organism: Orthomarburgvirus marburgense.
In a further test the target is HLA-B*39:01. The test is described as above. As to conditions: source organism: Orthomarburgvirus marburgense.
For the next test, the target named is HLA-A*26:02. The test is described as above. Particulars: source organism: Orthomarburgvirus marburgense.
The target of test [5] is HLA-A*26:01. The test is described as above. Particulars: source organism: Orthomarburgvirus marburgense.
In the next test the target is HLA-B*18:01. The test can be described thus: IEDB peptide-MHC binding, purified MHC/direct/fluorescence; filed as Kd, often an IC50 or EC50 that approximates it; ≥ and ≤ were set here for values at or beyond the usual limits of such assays.
Another test concerns the target HLA-A*31:01. Described as above.
In the next test the target is HLA-B*58:01. Described as above.
In test [6] the target is HLA-A*11:01. The description is as above.
The target in a further test is HLA-A*24:03. The description is as above. Particulars: source organism: Marburg virus - Musoke, Kenya, 1980.
For another test, the target named is HLA-B*08:02. The test is described as above. As to conditions: source organism: Ravn virus - Ravn, Kenya, 1987.
For a further test, the target named is HLA-B*07:02. The test is described as above.
In a further test the target is HLA-A*23:01. The test is described as above. As to conditions: source organism: Marburg virus - Musoke, Kenya, 1980.
The target in the next test is HLA-A*69:01. Described as above.
A further test deals with HLA-C*08:02. The test is described as above. As to conditions: source organism: Orthomarburgvirus marburgense.
Test [7] deals with HLA-A*01:01. The description is as above.
In another test the target is HLA-A*24:02. In words: IEDB peptide-MHC binding, purified MHC/competitive/radioactivity; ≥ and ≤ were set here for values at or beyond the usual limits of such assays. Particulars: source organism: Homo sapiens.
In the next test the target is HLA-B*35:01. The test can be described thus: IEDB peptide-MHC binding, purified MHC/competitive/fluorescence; filed as Kd, often an IC50 or EC50 that approximates it; ≥ and ≤ were set here for values at or beyond the usual limits of such assays. Particulars: source organism: Mycolicibacterium gilvum PYR-GCK.
The target of the next test is HLA-A*26:03. Described as above. Particulars: source organism: Mycolicibacterium gilvum PYR-GCK.
For a further test, the target named is HLA-B*48:01. The test can be described thus: IEDB peptide-MHC binding, purified MHC/direct/fluorescence; filed as Kd, often an IC50 or EC50 that approximates it; ≥ and ≤ were set here for values at or beyond the usual limits of such assays. Particulars: source organism: Mycobacterium tuberculosis.
Test [8] has as its target HLA-B*57:01. The description is as above. As to conditions: source organism: Mycobacterium tuberculosis.
The target of the next test is HLA-B*15:01. Described as above. Particulars: source organism: Mycobacterium tuberculosis.
In a further test the target is HLA-B*46:01. The test is described as above. Particulars: source organism: Mycobacterium tuberculosis.
In test [9] the target is HLA-A*02:01. Described as above. As to conditions: source organism: Mycobacterium tuberculosis.
The next test has as its target HLA-B*40:01. The test is described as above. Particulars: source organism: Mycobacterium tuberculosis.
Test [10] has as its target HLA-A*68:02. The description is as above. As to conditions: source organism: Mycobacterium tuberculosis.
Another test has as its target HLA-B*27:05. The description is as above. As to conditions: source organism: Mycobacterium tuberculosis.
The target in test [11] is HLA-A*26:01. The test is described as above. As to conditions: source organism: Mycobacterium tuberculosis str. Haarlem.
For test [12], the target named is HLA-A*02:01. The test can be described thus: IEDB peptide-MHC binding, cellular MHC/competitive/fluorescence; ≥ and ≤ were set here for values at or beyond the usual limits of such assays. As to conditions: source organism: Homo sapiens.
The next test concerns the target HLA-C*04:01. The test can be described thus: IEDB peptide-MHC binding, purified MHC/direct/fluorescence; filed as Kd, often an IC50 or EC50 that approximates it; ≥ and ≤ were set here for values at or beyond the usual limits of such assays. As to conditions: source organism: Canis lupus familiaris.
The target in the next test is HLA-C*07:02. The description is as above. As to conditions: source organism: Canis lupus familiaris.
In test [13] the target is HLA-A*11:01. The test can be described thus: IEDB peptide-MHC binding, purified MHC/competitive/fluorescence; filed as Kd, often an IC50 or EC50 that approximates it; ≥ and ≤ were set here for values at or beyond the usual limits of such assays. As to conditions: source organism: human gammaherpesvirus 4.
A further test has as its target HLA-B*53:01. In words: IEDB peptide-MHC binding, purified MHC/competitive/fluorescence; ≥ and ≤ were set here for values at or beyond the usual limits of such assays. Particulars: source organism: Human herpesvirus 4 type 2.
Where [14] appears, read: source organism: Orthomarburgvirus marburgense.
Where [15] appears, read: source organism: Marburg virus - Musoke, Kenya, 1980.
The mark [16] stands for this setting: source organism: Mycolicibacterium gilvum PYR-GCK.
[17] abbreviates: source organism: Mycobacterium tuberculosis.

The term IC50 denotes the point on the concentration scale where inhibition reaches its midpoint. With RLDCWRGGQV, the IC50 with HLA-A*02:01 [1] is 250 nM.
On to YGDDVIFSY, for which, in the test with HLA-A*01:01 [2] (source organism: Rhinovirus A), the IC50 is 200 nM.
The Kd is the concentration at which binding is half-saturated. A lower Kd goes with higher affinity. As for YLAPSYRNF, the Kd is no less than 20000 nM with HLA-B*57:01 [3]; no less than 20000 nM in the test with HLA-A*02:06 (setting [14]); 3980 nM with HLA-B*15:17 (setting [14]); 3220 nM in the test with HLA-A*68:02 [4]; no less than 20000 nM with HLA-B*15:09; no less than 20000 nM with HLA-B*39:01. The equilibrium dissociation constant (Kd) is 4.2 nM with HLA-A*26:02; 5130 nM with HLA-A*26:01 [5]; no less than 20000 nM in the test with HLA-B*18:01 (setting [15]); no less than 20000 nM with HLA-A*31:01 (setting [15]); 430 nM with HLA-B*58:01 (source organism: Ravn virus - Ravn, Kenya, 1987); no less than 20000 nM with HLA-A*11:01 [6] (setting [15]). In addition, the equilibrium dissociation constant (Kd) was 16.5 nM with HLA-A*24:03; no less than 20000 nM with HLA-B*08:02; no less than 20000 nM in the test with HLA-B*07:02 (setting [15]); 23 nM with HLA-A*23:01; no less than 20000 nM with HLA-A*69:01 (setting [15]); no less than 20000 nM with HLA-C*08:02. The Kd in the test with HLA-A*01:01 [7] (setting [15]) is no less than 20000 nM.
Take IFSKASEYL: in the test with HLA-A*24:02, the IC50 came out at 522 nM.
Turning to ALYLLDGLR, the Kd with HLA-A*02:06 (setting [16]) was no less than 20000 nM; with HLA-B*15:17 (setting [16]), 446 nM; with HLA-B*35:01, 1210 nM; with HLA-A*26:03 it was 1000 nM; with HLA-B*48:01, no less than 20000 nM; in the test with HLA-B*57:01 [8], no less than 20000 nM. Further, the Kd was no less than 20000 nM with HLA-B*18:01 (setting [17]); 106 nM in the test with HLA-A*31:01 (setting [17]); no less than 20000 nM with HLA-B*58:01 (setting [17]); 7370 nM in the test with HLA-A*11:01 [6] (setting [17]); no less than 20000 nM with HLA-B*15:01; no less than 20000 nM with HLA-B*46:01. For the same sequence, the Kd with HLA-B*07:02 (setting [17]), with HLA-A*02:01 [9], with HLA-B*40:01, with HLA-A*68:02 [10], with HLA-A*69:01 (setting [17]) and in the test with HLA-A*01:01 [7] (setting [17]) was no less than 20000 nM throughout. For the same sequence, the equilibrium dissociation constant (Kd) with HLA-B*27:05 and in the test with HLA-A*26:01 [11] was no less than 20000 nM throughout.
Consider LLAVGATKV, for which the IC50 with HLA-A*02:01 [1] came to 333 nM.
In turn, LLDRFLATV returned a half-inhibitory concentration (IC50) with HLA-A*02:01 [12] of 560 nM.
On to HYNAFHWAI, for which the figures for the Kd in the test with HLA-C*04:01 and with HLA-C*07:02 were no less than 20000 nM and 47 nM, respectively.
In the case of ALLDKLYAL, in the test with HLA-A*02:01 [12], the concentration for half-maximal inhibition (IC50) is 1180 nM.
FYDPMFKYHL: the IC50 with HLA-A*24:02 was determined as 153 nM.
As to KSAIVTLTY, the IC50 in the test with HLA-A*01:01 [2] (source organism: Human papillomavirus 16) is 11 nM.
Turning to FSSQLGLFY, in the test with HLA-A*11:01 [13], the Kd was 947 nM. Besides, the IC50 with HLA-B*53:01 was 2970 nM.
